Test results taken from the supplement of paper PMC10567573.

B1: RAB11A (parent)
chain: AVPTDEARAFAEKNGLSFIETSAL

Variants of: B1
Assay: protein stability index of a GFP-peptide fusion (GPS, HEK-293T) (PSI 1-6); higher = more stable
Settings: c terminus: a fixed tail appended
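Note: lentivirally expressed fusions sorted by FACS into six bins by GFP to DsRed ratio, PSI derived from sequencing read proportions per bin multiplied by bin number.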

Variant | protein stability index
AVWTDEARAFAEKNGLSFIETSAL | 2.08
AVFTDEARAFAEKNGLSFIETSAL | 2.23
AVQTDEARAFAEKNGLSFIETSAL | 2.78
AVYTDEARAFAEKNGLSFIETSAL | 2.23
AVRTDEARAFAEKNGLSFIETSAL | 2.07
AVKTDEARAFAEKNGLSFIETSAL | 2.55
AVTTDEARAFAEKNGLSFIETSAL | 2.81
AVHTDEARAFAEKNGLSFIETSAL | 2.54
AVPTDMARAFAEKNGLSFIETSAL | 2.15
AVPTDYARAFAEKNGLSFIETSAL | 1.88
AVPTDNARAFAEKNGLSFIETSAL | 2.24
AVPTDPARAFAEKNGLSFIETSAL | 1.74
AVPTDAARAFAEKNGLSFIETSAL | 1.94
AVPTDKARAFAEKNGLSFIETSAL | 1.8
AVPTDFARAFAEKNGLSFIETSAL | 1.73
AVPTDDARAFAEKNGLSFIETSAL | 2.18
AVPTDIARAFAEKNGLSFIETSAL | 1.73
AVPTDEARAFAEKNGLSFIEKSAL | 3.37
AVPTDEARAFAEKNGLSFIENSAL | 2.47
AVPTDEARAFAEKNGLSFIEYSAL | 1.5
AVPTDEARAFAEKNGLSFIESSAL | 3.11
AVPTDEARAFAEKNGLSFIEVSAL | 2.12
AVPTDEARAFAEKNGLSFIEPSAL | 2.15
AVPTDEARAFAEKNGLSFIEDSAL | 4.45

Variant | protein stability index
AVPTDEARAFAEKNGLSFPETSAL | 4.5
AVPTDEARAFAEKNGLSFDETSAL | 4.56
AVPTDEARAFAEKNGLSFTETSAL | 4.17
AVPTDEARAFAEKNGLSFVETSAL | 3
AVPTDEARAFAEKNGLSFYETSAL | 3.81
AVPTDEARAFAEKNGLSFLETSAL | 3.71
AVPTDEARAFAEKNGLSFRETSAL | 3.85
AVPTDEARAFAEKNGLSFSETSAL | 4.41
MVPTDEARAFAEKNGLSFIETSAL | 2.41
SVPTDEARAFAEKNGLSFIETSAL | 2.56
LVPTDEARAFAEKNGLSFIETSAL | 2.28
TVPTDEARAFAEKNGLSFIETSAL | 2.55
KVPTDEARAFAEKNGLSFIETSAL | 2.8
IVPTDEARAFAEKNGLSFIETSAL | 2.57
PVPTDEARAFAEKNGLSFIETSAL | 2.38
QVPTDEARAFAEKNGLSFIETSAL | 2.43
AVPTFEARAFAEKNGLSFIETSAL | 1.92
AVPTGEARAFAEKNGLSFIETSAL | 1.94
AVPTPEARAFAEKNGLSFIETSAL | 2.23
AVPTIEARAFAEKNGLSFIETSAL | 2.04
AVPTAEARAFAEKNGLSFIETSAL | 1.77
AVPTKEARAFAEKNGLSFIETSAL | 1.79
AVPTYEARAFAEKNGLSFIETSAL | 2.15
AVPTDENRAFAEKNGLSFIETSAL | 2.33

Variant | protein stability index
AVPTDEPRAFAEKNGLSFIETSAL | 2.04
AVPTDEYRAFAEKNGLSFIETSAL | 2.45
AVPTDECRAFAEKNGLSFIETSAL | 1.83
AVPTDELRAFAEKNGLSFIETSAL | 2.28
AVPTDEIRAFAEKNGLSFIETSAL | 2.21
AVPTDEMRAFAEKNGLSFIETSAL | 2.05
AVPTDEGRAFAEKNGLSFIETSAL | 2.17
AVPTDEARAFAEKVGLSFIETSAL | 1.85
AVPTDEARAFAEKHGLSFIETSAL | 2.36
AVPTDEARAFAEKSGLSFIETSAL | 2.95
AVPTDEARAFAEKPGLSFIETSAL | 2.44
AVPTDEARAFAEKCGLSFIETSAL | 1.71
AVPTDEARAFAEKYGLSFIETSAL | 2.17
AVPTDEARAFAEKRGLSFIETSAL | 2.52
AVPIDEARAFAEKNGLSFIETSAL | 2.28
AVPRDEARAFAEKNGLSFIETSAL | 2.02
AVPFDEARAFAEKNGLSFIETSAL | 2.06
AVPADEARAFAEKNGLSFIETSAL | 2.04
AVPYDEARAFAEKNGLSFIETSAL | 2.11
AVPCDEARAFAEKNGLSFIETSAL | 1.89
AVPGDEARAFAEKNGLSFIETSAL | 2.52
AVPEDEARAFAEKNGLSFIETSAL | 2.75
AVPTDEARAFAEDNGLSFIETSAL | 3.88
AVPTDEARAFAEENGLSFIETSAL | 2.81

Variant | protein stability index
AVPTDEARAFAECNGLSFIETSAL | 2.38
AVPTDEARAFAEYNGLSFIETSAL | 2.49
AVPTDEARAFAEPNGLSFIETSAL | 2.28
AVPTDEAVAFAEKNGLSFIETSAL | 2.72
AVPTDEAGAFAEKNGLSFIETSAL | 2.63
AVPTDEAWAFAEKNGLSFIETSAL | 2.46
AVPTDEAIAFAEKNGLSFIETSAL | 2.59
AVPTDEAHAFAEKNGLSFIETSAL | 2.7
AVPTDEADAFAEKNGLSFIETSAL | 2.82
AVPTDEAAAFAEKNGLSFIETSAL | 2.64
AVPTDEANAFAEKNGLSFIETSAL | 2.64
AVPTDEARAFAEKNGLWFIETSAL | 2.66
AVPTDEARAFAEKNGLVFIETSAL | 2.79
AVPTDEARAFAEKNGLTFIETSAL | 3.36
AVPTDEARAFAEKNGLIFIETSAL | 2.73
AVPTDEARAFAEKNGLPFIETSAL | 4.38
AVPTDEARAFAEKNGLGFIETSAL | 3.53
AVPTDEARAFAEKNGLYFIETSAL | 2.97
AVPTDEARAFAEKNGLAFIETSAL | 2.53
AVPTDEARAFAEKNGLHFIETSAL | 3.19
AVPTDEARAFAEKNGLSFIPTSAL | 3.12
AVPTDEARAFAEKNGLSFIATSAL | 2.27
AVPTDEARAFAEKNGLSFISTSAL | 3.01
AVPTDEARAFAEKNGLSFIITSAL | 1.8

Variant | protein stability index
AVPTDEARAFAEKNGLSFIWTSAL | 1.44
AVPTDEARAFAEKNGLSFIVTSAL | 1.86
AVPTDEARAFAEKNGLSFIQTSAL | 2.34
AVPTDEARAFAEKNGLSFIDTSAL | 2.08
AVPTDEARAFAEKNGLSFIFTSAL | 1.79
AVPTDEARAFAEKNGLSFIETSVL | 2.12
AVPTDEARAFAEKNGLSFIETSPL | 2.82
AVPTDEARAFAEKNGLSFIETSNL | 2.87
AVPTDEARAFAEKNGLSFIETSSL | 2.79
AVPTDEARAFAEKNGLSFIETSML | 1.81
AVPTDEARAFAEKNGLSFIETSLL | 1.9
AVPTDEARAFAEKNGLSFIETSYL | 1.81
AVPTDEARAFAEKNGLSFIETSTL | 2.08
AVPTDEARAFAEKNGLSFIETSCL | 2.08
AVPTDEARAFAEKNGLSFIETSQL | 2.52
AVPTDEARAFAEKNGLSFIETSEL | 3.68
AVPTDEARAFAEKNGQSFIETSAL | 4.2
AVPTDEARAFAEKNGMSFIETSAL | 3.73
AVPTDEARAFAEKNGASFIETSAL | 4.51
AVPTDEARAFAEKNGWSFIETSAL | 2.6
AVPTDEARAFAEKNGRSFIETSAL | 3.8
AVPTDEARAFAEKNGKSFIETSAL | 4.27
AVPTDEARAFAEKNGFSFIETSAL | 1.91
AVPTDEARAFAEKNGLSMIETSAL | 3.93

Variant | protein stability index
AVPTDEARAFAEKNGLSNIETSAL | 4.47
AVPTDEARAFAEKNGLSHIETSAL | 4.72
AVPTDEARAFANKNGLSFIETSAL | 2.41
AVPTDEARAFAHKNGLSFIETSAL | 1.96
AVPTDEARAFAWKNGLSFIETSAL | 2.08
AVPTDEARAFATKNGLSFIETSAL | 1.46
AVPTDEARAFALKNGLSFIETSAL | 1.75
AVPTDEARAFAPKNGLSFIETSAL | 1.88
AVPTDEARAFAVKNGLSFIETSAL | 2.3
AVPTDEARAFAEKNGLSFIETVAL | 2.64
AVPTDEARAFAEKNGLSFIETLAL | 2.5
AVPTDEARAFAEKNGLSFIETRAL | 2.25
AVPTDEARAFAEKNGLSFIETFAL | 2.27
AVPTDEARAFAEKNGLSFIETAAL | 2.35
AVPTDEARAFAEKNGLSFIETQAL | 3.14
AVPTDEARAFAEKNGLSFIETNAL | 3.38
AVPTDEARAFAEKNGLSFIETPAL | 3.73
AVPTDEARAFAEKNGLSFIETMAL | 1.95
AVPTDEARAFAEKNGLSFIETSAC | 3.07
AVPTDEARAFAEKNGLSFIETSAP | 4.62
AVPTDEARAFAEKNGLSFIETSAF | 2.73
AVPTDEARAFAEKNGLSFIETSAK | 3.53
AVPTDEARAFAEKNGLSFIETSAY | 3.04
AVPTDEARAFAEKNGLSFIETSAG | 5.05

Variant | protein stability index
AVPTDEARAFAEKNGLSFIETSAV | 3.31
AVPTDEARAFAEKNGLSFIETSAT | 3.98
AVPTDEARAFAEKNGLSFIETSAQ | 3.47
AVPTDEARAFAEKNGLSFIETSAE | 5.03
AVPTDEARAFAEKNLLSFIETSAL | 1.67
AVPTDEARAFAEKNKLSFIETSAL | 2.92
AVPTDEARAFAEKNWLSFIETSAL | 2.3
AVPTDEARAFAEKNALSFIETSAL | 2.08
AVPTDEARAFAEKNFLSFIETSAL | 1.82
AVPTDEARAFAEKNILSFIETSAL | 2.8
AVPTDEARAFAEKNDLSFIETSAL | 3.87
AVPTDEARAFAEKNRLSFIETSAL | 2.52
AVPTDEARAFAEKNCLSFIETSAL | 2.59
AVPTDEARAFYEKNGLSFIETSAL | 2.2
AVPTDEARAFWEKNGLSFIETSAL | 1.9
AVPTDEARAFGEKNGLSFIETSAL | 1.97
AVPTDEARAFSEKNGLSFIETSAL | 2.63
AVPTDEARAFKEKNGLSFIETSAL | 1.96
AVPTDEARAFEEKNGLSFIETSAL | 2.76
AVPTDEARARAEKNGLSFIETSAL | 2.49
AVPTDEARAQAEKNGLSFIETSAL | 3.08
AVPTDEARAPAEKNGLSFIETSAL | 2.31
AVPTDEARACAEKNGLSFIETSAL | 2.43
AVPTDEARAMAEKNGLSFIETSAL | 2.27

Variant | protein stability index
AVPTDEARADAEKNGLSFIETSAL | 3.86
AVPTDEARAYAEKNGLSFIETSAL | 2.71
AVPTDEARAAAEKNGLSFIETSAL | 2.76
AVPTDEARAVAEKNGLSFIETSAL | 2.46
AVPTDEARCFAEKNGLSFIETSAL | 1.82
AVPTDEARKFAEKNGLSFIETSAL | 2.34
AVPTDEARIFAEKNGLSFIETSAL | 2.33
AVPTDEARNFAEKNGLSFIETSAL | 2.46
AVPTDEARDFAEKNGLSFIETSAL | 2.78
AVPTDEARYFAEKNGLSFIETSAL | 2.11
AVPTDEARRFAEKNGLSFIETSAL | 1.96
AWPTDEARAFAEKNGLSFIETSAL | 2.05
ADPTDEARAFAEKNGLSFIETSAL | 2.74
AGPTDEARAFAEKNGLSFIETSAL | 2.73
AQPTDEARAFAEKNGLSFIETSAL | 2
AYPTDEARAFAEKNGLSFIETSAL | 2.49
AHPTDEARAFAEKNGLSFIETSAL | 2.46
ANPTDEARAFAEKNGLSFIETSAL | 2.52
ATPTDEARAFAEKNGLSFIETSAL | 2.47
AAPTDEARAFAEKNGLSFIETSAL | 2.51
